Results from PMC4703388, “Conformational Sampling and Binding Site Assessment of Suppression of Tumorigenicity 2 Ectodomain” (PLoS ONE, 2016).
Where two headings read alike, the source gives them in different places.

B1: ST2 ectodomain, D1-D3 domains (sequence 19-323) (domain or fragment)
chain: KFSKQSWGLENEALIVRCPRQGKPSYTVDWYYSQTNKSIPTQERNRVFASGQLLKFLPAAVADSGIYTCIVRSPTFNRTGYANVTIYKKQSDCNVPDYLMYSTVSGSEKNSKIYCPTIDLYNWTAPLEWFKNCQALQGSRYRAHKSFLVIDNVMTEDAGDYTCKFIHNENGANYSVTATRSFTVKDEQGFSLFPVIGAPAQNEIKEVEIGKNANLTCSACFGKGTQFLAAVLWQLNGTKITDFGEPRIQQEEGQNQSFSNGLACLDMVLRIADVKEEDLLLQYDCLALNLHGLRRHTVRLSRKNP
modifications: biotinylated with Biotin-PEO4 linker (equimolar ratio)
B2: IL-33 (residues 112-270) (ligand, UniProt O95760 112-270, looked up)
chain: SITGISPITEYLASLSTYNDQSITFALEDESYEIYVEDLKKDEKKDKVLLSYYESQHPSNESGDGVDGKMLMVTLSPTKDFWLHANNKEHSVELHKCEKPLPDQAFFVLHNMHSNCVSFECKTDPGVFIGVKDNHLALIKVDSSENLCTENILFKLSET
notes: Interleukin-33, residues 112-270; Used unlabelled as the analyte in BLI; source: E. coli Rosetta2 (DE3), purified (Ni-NTA, TEV cleavage, second Ni-NTA, Superdex 75); not shown: His6, N-terminal, cleaved

Assays:
IL-33 (Homo sapiens) = IL-33 (Homo sapiens) (UniProt O95760); assay: ITC; details: cited from earlier work
IL-1α (Homo sapiens) = IL-1α (Homo sapiens) (UniProt P01583); details: cited from earlier work
IL-1β (Homo sapiens) [1] = molecular target: IL-1β (Homo sapiens) (UniProt P01584); details: cited from earlier work
IL-1Ra (Homo sapiens) = IL-1Ra (Homo sapiens) (UniProt P18510); details: cited from earlier work
IL-1β (Homo sapiens) [2] = molecular target: IL-1β (Homo sapiens) (UniProt P01584); details: cited from earlier work; remark: listed apart in the source
IL-33 (residues 112-270) = molecular target: B2; assay: BLI; OctetRED96; biotinylated ST2 loaded on streptavidin sensors (20 ug/mL, 10 min), serial dilutions of IL-33 in solution; 25 C; 10 mM HEPES pH 7.5, 150 mM NaCl, 0.005% Tween 20, 100 uM EDTA; 1:1 binding model, KD calculated from kon and koff; details: both partners purified
[3] = molecular target: ST2 D1-D2 domain (sequence 19-206) (UniProt Q01638 19-206, biotinylated with Biotin-PEO4 linker (equimolar ratio)); assay: as above; details: both partners purified

Chain of IL-1β (Homo sapiens) (P01584 117-269): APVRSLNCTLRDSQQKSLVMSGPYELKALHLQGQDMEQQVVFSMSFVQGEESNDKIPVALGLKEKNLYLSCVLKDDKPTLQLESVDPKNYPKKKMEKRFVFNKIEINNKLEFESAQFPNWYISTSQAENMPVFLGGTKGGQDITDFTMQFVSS
Chain of IL-1α (Homo sapiens) (P01583 113-271): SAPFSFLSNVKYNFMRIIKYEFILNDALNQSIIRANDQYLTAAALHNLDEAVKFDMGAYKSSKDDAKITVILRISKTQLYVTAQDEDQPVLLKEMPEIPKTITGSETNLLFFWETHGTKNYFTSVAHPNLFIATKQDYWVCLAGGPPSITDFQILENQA
Chain of IL-1Ra (Homo sapiens) (P18510 26-177): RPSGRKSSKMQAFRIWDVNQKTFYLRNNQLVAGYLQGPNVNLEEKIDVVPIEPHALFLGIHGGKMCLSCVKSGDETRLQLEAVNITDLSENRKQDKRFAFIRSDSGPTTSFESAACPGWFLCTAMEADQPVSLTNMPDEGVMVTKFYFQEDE

In the case of ST2 ECD (from UniProt Q01638), the Kd (IL-33 (Homo sapiens)) is given as 5 nM.

For IL-1R1 D1-D2 (from UniProt P14778), the Kd (IL-1α (Homo sapiens)) is given as 7000 nM, the Kd (IL-1β (Homo sapiens) [1]) is given as > 10000 nM and the Kd (IL-1Ra (Homo sapiens)) is given as 28 nM.

For IL-1R1 D1-D3 (from UniProt P14778), the Kd (IL-1β (Homo sapiens) [2]) is given as 2 nM.

Molecule B1 has a Kd (IL-33 (residues 112-270)) of 2.23 nM, a koff (IL-33 (residues 112-270)) of 0.00115 s⁻¹ and a kon (IL-33 (residues 112-270)) of 516000 M⁻¹ s⁻¹.

B2 gave a Kd [3] of 65.1 nM, a koff [3] of 0.215 s⁻¹ and a kon [3] of 3.3e+06 M⁻¹ s⁻¹.
